Reference: a protein production outcome set (Wang et al. 2014)
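Further: failed if final PepcDB status was selected cloned or expressed and not failed if soluble or beyond.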

Test: label from the status in PepcDB records
In the case of “MCYHLIIDSFIDRISRMHTQRGLEVTTGSIEAVDSINYFHEQVLSSGQNAIQILDSAKKHTDNLLIQTYAAAFYLYAQEDVANEQASDYLQSAFRLLTSANEREKLIFEAVTNWSKRDYANAISLLVTLLERYPRDTLALKFMEWLFYCTGQAFNAEYFLKVCDKCAPENQDESHFLAIHSFALELCGQYSKAKEMAEEAITMNLLTPWAHHTLAHVHLLTSDITGGINRLRDLQKTWEDILPLLKGHNTWHLALFYLANRNEEEVKKLYPHISGALPDTVLEQLDTISLLWRMDMAGLPQDRLLNQVVDHLSTHPLEYYTGFTNAHFIYCLVKSGYKNEADESLKRMKFYACSPSSDALWGDVVLPLCQGIYAFADADYKTALMLMEPVIGECAQLGGSDAQIELFFQTYLLVLIHNKQKDKALQFFTEHLKYYNNTPLSDWWFQSANKA”, the protein production is reported as “failed”. With “MDAAVVGGGPAGSLAAILLGKSYDVALFEEHQSAGFPVQCAGLVSDKCYKKLKEHCKAEKAIENHIKGAFFFSPSGKIVLEGRGEAVVVERKILDRLLFERAAERAKVFVKEKARLNGFRIITPSREVSAEKIIGADGVNSTVREHFGFPTMGFFTAVQVEAKFEPLDENCVELYFGGNWSDSFFAYAIPLGDTARIGVVSRSSPLRYLENLMKRHPSVSGRVEGSAVELNAGAIPDRLVKFSKRDVALIGDAAGMVKPYTGGGLYYHLIAAEKLAESFPDLKGYEKSYLKEMGREYRFGYAVRKLYSLPDEKLEQLFSAMADFDFRGVHMDSPSTLIRKAADISFRLLRKPSLAFYLVKSLFLLEHHHHHH” the protein production was “failed”. With “MDAIRIVLKNISQVLLLNNAWTGLFILLGLFIGSWKVGVMALIASVIALLLAKRTNYSEEEINTGLSGFNPVLTAIALTLFLVPKWYSLIIILVAIIITMPIGSAFREFFKPFGVPMLTMPYVFVSWLILLMSFQFKFVNADVNILPNAIQEIQFSGHHIQFINAFLSGFSEIFLLKSVLAGTLILIGIFIASRKAGVYAIVANLIGFLAVIVLGANHDQINEGLFGYNVILTVLALGIAFRTRIQRPISIVLGILLTVVIHAGMTTLLTPYGLPVFTLPFIIATWIMLFAGNQMKAQEI” the protein production was “failed”. For “MDALEIFKTLFSLVMRFSSYLPSNEEISDMKTTELYAFLYVALFGPKKMKEIAEFLSTTKSNVTNVVDSLEKRGLVVREMDPVDRRTYRVVLTEKGKEIFGEILSNFESLLKSVLEKFSEEDFKVVSEGFNRMVEALSREGR”, the protein production was “not failed”. For “MDALVEDDICILNHEKAHKRDTVTPVSIYSGDESVASHFALVTAYEDIKKRLKDSEKENSLLKKRIRFLEEKLIARFEEETSSVGREQVNKAYHAYREVCIDRDNLKSKLDKMNKDNSESLKVLNEQLQSKEVELLQLRTEVETQQVMRNLNPPSSNWEVEKLSCDLKIHGLEQELELMRKECSDLKIELQKAKQTDPYQEDNLKSRDLQKLSISSDNMQHAYWELKREMSNLHLVTQVQAELLRKLKTSTAIKKGKSLFTGNH”, the protein production was “not failed”. For “MDASTSFAILPSNVKQKTAFPRKINQVKTASWANNCLTGTLDVGHFSCYFVNEKIARVTVNPFGEADLTPSIAAINDTEKQAAVFTETNDHYELQFADKKLIVSKNPFQIIMKQAGKTIFQTEGLAINRDKEHQISIQSKPGTAIFGLGEKTGALNKAGSIISMWNTDVYSPHNKDTVELYQSIPFMIADTEETTYGLFYDNSHRTEFDFQSFEEMYTILAEGGQANLYVIFGEDVKEVVANYTNLTGKTPLPPKWSLGYHQSRYSYTSEEEVERIANTFKEKEIPLDCVFMDIHYMDDFRVFTFNPDTFPNGPELIARLREQNIDVVPIVDPGIKKDVNYSVYQEGIKHHYFCRKLEGAIYYGDVWPGVSAFPDFLSTTVQRWWGDLHQFYTDLGIRGIWNDMNEPSVFNESKTMDLDVVHNMDGKNVTHKEAHNLYGLYMSKATFEGLKRLVPNERPFSLTRAGYAGVQRYSAVWTGDNRSHWEHLEMSLPMIMNLGLSGVAFTGADVGGFSSDCTKEMLIRWTQAGAFLPYFRNHCVQDSIYQEPWAFGLDAEKIVKKYIEMRYTFLPYIYTEFQKTAENGLPIVRPLYMEFKEERDLIQVNDQFMLGENILVAPIVREGQVKRLVRLPKGTWFNYWTKEQVEGGDYIIADAPIDVMPIYIKAGTILPLGTSVQNTKEAQDLALEIYLDNDEASGYVYNDDGKSYQYESGKISKTAFTATFKNGEVQINGDHHGEENLQQKVTTIEVFGKKIDKITRAGI”, the protein production was “failed”. For “MDATMVFKRLLGSLGVGAPTVDTVLDPAPVLPGGTLTGQVHLEGGQTDFDIEHITLELVARVEAEHEDGEDEGVVVFDRFTVGGGFRLGAEEPRSVPFRVTLPWETPITELYGQPLGIVLGVRTELAVADAKDKGDLDQLTVTALPVQEAVLEAFGQLGFGFGSADLEYGHIGGTGQQLPFYQEIELVPAPQYADRLNEIELTFLAGPGGLEVVLEADKRGGLLSSGHDAVTRFSVGHHDARDWAAEVEGWVRQLVEHHTTYGAPGTHGHSTPYAGHGHHDPHGNGGRHHDDHRSGPGVGTAVAAGAAGLAVGVVGGMVAAEVVDEVGDFFEGDDEEEDEG”, the protein production was “not failed”. For “MDDDPHFDQNVQTVIAKTEAYITESVKAGGTGRALRDAHAKGYGLVRGEVEILDGLPPEYAQGIYATPGTHDALIRFSNGSPHAGADARLGAATGLALKIFDIPGPTLLEDEPDTGTFDYANINGPIFFCNTVEHYLFIQELFLNAPAYFSQGRPGAHRFFTDFVTGKGTLDQDDWAWDEFLAFLRLSKTPPANLLLSSYWTMGAVRHGDYIAKVRITPDPSFAAAVVRRDIDPTSAQEVFRPALEAELQERPYAFDIQVQLCTDLERMPVEDTTVEWPEQLSPSVTVAKLRLPRQDISGPENLEKMDSLSFTPWRVTAEHAPLGNIMRSRKEVYRQSSMELEHHHHHH”, the protein production was “failed”. With “MDDERTVRSEVHVVVEDGEIVAIEDGYASGDEVVDATEEVVIPGLVNCHTHMYALPIRGAPLAASPESFYEALVDIWWNVDEAFTERDARLSALGSSVEMLQSGVTTFCDNYSGPNTLPGGLDAVAEGVAQTPIRGMITFETTARNSEAQARDGIAENQRFIDEAEDQYDTVSGHYCLHTLFTNTEDIVAECVDRATDDNRPIQIHLEEGLVDVHESIADYGERPVFALEDMGFFDAEVIAAHCVHSTESEIEVLAEHDVNVAHNPYSNINNAVGIADVETMQAHEMTIGLGDDGWDPDMFETMRSAVGIHKLKQRNPSGFDMATALEWATIGSAAVLGMDDAVGSIEVGKRGDFVTLDLGPNPVLDGSAPYYVVSAASRADVTRTIIDGESVYDQQSGVTGVDDSDMTAVGDASAELWERL” the protein production was “failed”. With “MDDIRCAIIIDPDLPPGVIANTAAVLAMSLGKRHPELVGQDLPDARGQPRQGITTVPIPVLKGGADQLRALRAAASETGLTLVELTSATRFTRSYQEYAAALAATPEEMVEYQGLALCGPGKRVRQLTGSLGLLRLEHHHHHH” the protein production was “failed”. With “MDDLASQSFPEPERAIMKATYQVLCEYGYADLTIQQIADEYGKTTTAVHYHCDTKNKLLTAFLDYLLEELADSVHNIRTTNPENRLKFLLDELLVKSKNEPVLSIALLEMQSQTPYKEPFRERFKQMAVVNRQTELDFTVSETA” the protein production was “failed”. In the case of “MDDLIRLLEEMGIPFAYDHFAEGESPDPPFICYLLPQSDNFSADGKVYLKVSSVNIELYTDCKDLSVEQKLEAVLDTHGIFYDKTKVWIESEKLYEVLYSFEMEVLEHHHHHH”, the protein production is reported as “failed”. For “MDDQGCPRCKTTKYRNPSLKLMVNVCGHTLCESCVDLLFVRGAGNCPECGTPLRKSNFRVQLFEDPTVDKEVEIRKKVLKIYNKREEDFPSLREYNDFLEEVEEIVFNLTNNVDLDNTKKKMEIYQKENKDVIQKNKLKLTREQEELEEALEVERQENEQRRLFIQKEEQLQQILKRKNKQAFLDELESSDLPVALLLAQHKDRSTQLEMQLEKPKPVKPVTFSTGIKMGQHISLAPIHKLEEALYEYQPLQIETYGPHVPELEMLGRLGYLNHVRAASPQDLAGGYTSSLACHRALQDAFSGLFWQPS”, the protein production was “not failed”. With “MDDVGRYQCLAVNEMGTVKKVVTVVLQSAPVFQVEPRDVTVRSGVDVELRCRATGEPVPTIEWLRAGRPLQAGRKLRALPDGSLWLEHVEAGDAGVYECVAHNRLGSVTAKALLAVRGEPRGSRGSMTGVINGQEFGMATLNISVLQQGSSEAPTIWSSISHVPASVGPLMRVLVVTIAPIYWALARESGEALNGYSLTGGSFQQESQMEFSTGELLTMTQVARGLDPDGLLLVDMKINGMIPESLADGDLRVQDFQEHYVQTGPGQLFAGSTQRFLHDSLPASLRCNHSIQYDETRGLQPQLVQHLRASSISSAFDPEAEALNFQLTTALQTEENEVGCPEGFEPDVQGAFCVDKDECSGGPSPCSHTCRNAPGHFSCSCPTGFSLAWDHRNCRDVDECAGDTHLCQEEQRCVNLLGSYNCLASCRPGFRVTADGSNCEDVDECLEQLDECHYNQLCENTPGGHHCGCPRGYRQQGHSLPCLDINECLQLPTPCVYQCQNLQGSYRCLCPPGQTLLRDGRTCIPLERNRQNITIVSHRSPFGPWLRSRVPRPSSSYHTWVSLRPGSGALNSVGRAWCPPGFIRQDGVCADLDECRVRSLCQHACQNTEGSYYCLCPSGYRLLPSGKNCQDINECEEDGIECGPGQMCFNTRGSFQCVDTPCPTTYRQGSSPGTCFRRCSQDCSASGPSTLQYRLLPLPLGVRAHHDVARLAAFSEAGIPANRTELTVLEPDPRSPFALRQLRAGQGAVYTRRALTRAGLYRLTVRAAAPRHQSVYILLIAVSPYPY” the protein production was “failed”. In the case of “MDDWRRFAQQMASLARDLLSQESLHDTLDRITASATELVEDCDAAGILILRGTKVQSLAPTEQVVIDSDALQGRVGEGPCFDAARSGTGERQFRIADFTDEAQRWPKYVPEARKLNLGSMMGFLLFTEDEDLGALNMYSYRPGAFTEADETAGWLLASHAAVAFSSARTHAQMQEAIGTRHIIGEAMGILMGRHRMSEDQAFAALRRYSQDHNVKLRNVAAQVCERGGLPEPTDKR”, the protein production is reported as “failed”. With “MDDYSLDEFRRRWQEELAQAQAPKKRRRPEAAERRARRPEVGSGRSEQASGDPALAQGLLEGAGRPPAARATRAEGQDVASRSRSPLAREGAGGGEQLVDQLIRDLNEMNDVPFFDIQLPYELAINIFQYLDRKELGRCAQVSKTWKVIAEDEVLWYRLCQQEGHLPDSSISDYSCWKLIFQECRAKEHMLQTNWKNRKGAVSELEHVPDTVLCDVHSHDGVVIAGYTSGDVRVWDTRTWDYVAPFLESEDEEDEPGMQPNVSFVRINSSLAVAAYEDGFLNIWDLRTGKYPVHRFEHDARIQALALSQDDATVATASAFDVVMLSPNEEGYWQIAAEFEVPKLVQYLEIVPETRRYPVAVAAAGDLMYLLKAEDSARTILYAHGPPVTCLDVSANQVAFGVQGLGWVYEGSKILVYSLEAGRRLLKLGNVLRDFTCVNLSDSPPNLMVSGNMDGRVRIHDLRSGNIALSLSAHQLRVSAVQMDDWKIVSGGEEGLVSVWDYRMNQKLWEVYSGHPVQHISFSSHSLITANVPYQTVMRNADLDSFTTHRRHRGLIRAYEFAVDQLAFQSPLPVCRSSCDAMATHYYDLALAFPYNHV” the protein production was “failed”.
